Key:
[1] = Heat-induced unfolding by far UV-CD at 206 nm; format: physicochemical; details: far UV-CD 206 nm; average of three batches; pH 7
Description: 1.12.1. Preparation of the samples and measurements. Samples of NbE201 in 0.05 M NaP buffer pH 7 were prepared at a protein concentration of 0.2 mg mL-1. All the experiments were carried out in 1 mm quartz cell and a JASCO J-810 CD spectrophotometer equipped with a Peltier cell-holder. Mineral oil was added on the top of the sample to avoid sample evaporation. The CD spectrum of the native and denatured states of the protein were recorded from 190 nm to 260 nm at 25° C. and at 97° C. 61 data points were recorded with a 1 nm data interval, a data pitch of 0.1 nm, 2 s integration time, a bandwidth of 1 nm and a scanning speed of 50 nm/min. Heat-induced unfolding was monitored by far UV-CD at 206 nm. […] Data were acquired with a reading frequency of 0.05 s^−1 using a 4 s integration time and a 1 nm bandwidth. […]
1.12.2. […] The transition curves obtained were analyzed based on a two-state (N ? U) model and Equation 1 where x is the temperature during the analysis and a=−(ΔHm (1−x/Tm))/RT (doi: 10.1016/j.jmb.2008.11.046), and yobs is the CD signal at 206 nm at a given temperature (x), and YN and YU are the values of these signals for the native and denatured states, respectively at 273K. p and q are the slopes of the pre- and post-transition baselines, respectively, R is the gas constant, and T is the absolute temperature. […]

[2] = Urea-induced unfolding (intrinsic fluorescence, far UV-CD); format: physicochemical; details: pH 7, 25° C.
Description: 1.11.1. Preparation of the samples. Samples of NbE201 were incubated overnight at 25° C. in the presence of increasing concentrations of urea (Sigma-Aldrich) in 0.05 M NaP buffer pH 7. The protein concentration was 0.2 mg mL-1. The denaturant concentration in each sample was determined from refractive index measurements (Pace, C. N., 1986, doi.org/10.1016/0076-6879 (86) 31045-0), using a R5000 hand refractometer from Atago (Tokyo, Japan). The same samples were used to measure both the intrinsic fluorescence and far ultraviolet circular dichroism (UV-CD) spectra. Blank samples (without the Nb) every 1 M urea were prepared to make a reference curve that was used to correct the contribution of (buffer+urea) for fluorescence and circular dichroism (CD) signal at each urea concentration.
1.11.2. Measurements of fluorescence and far-UV-CD signals/spectra. Intrinsic fluorescence spectra to monitor changes in the tertiary structure were recorded at 25° C. from 305 nm to 440 nm after excitation at 280 nm with 5 nm excitation and emission slits using a Cary Eclipse Fluorimeter (Agilent, Santa Clara, USA) equipped with a thermostatically controlled multi-cuvette holder and a 10*0.4 mm pathlength quartz micro cuvette. The voltage applied at the detector was 710 V. Data acquisition was made every 0.5 nm with a scan rate of 30 nm·min^−1.
Far UV-CD spectrum of the native and denatured states (i.e. in 9 M urea) were recorded from 190 nm to 260 nm in a 0.2 mm pathlength quartz cuvette at 25° C. […] were recorded with a 0.1 nm data interval, a data pitch of 0.1 nm, 2 s integration time, a bandwidth of 1 nm and a scanning speed of 50 nm/min. The unfolding transitions were monitored by far UV-CD at 207 nm in a 0.2 mm pathlength quartz cuvette. At each denaturant concentration, 37 data points were acquired with a 1 nm bandwidth, a reading frequency of 5 s and a 4 s integration time, and averaged. The measurements were carried out with Jasco J-810 spectropolarimeter, (JASCO, Lisses, France) equipped with a Peltier cell holder.
1.11.3. Data analysis. The intrinsic fluorescence spectra were fitted using a five parameter Weibull function (from software SigmaPlot 5.0) to determine the wavelength corresponding to the highest fluorescence intensity (λmax). The changes in fluorescence intensity at 337 nm were also used to monitor the unfolding transition. The transition curves obtained were analyzed based on a two-state (N ? U) model according to Dumoulin et al. (doi: 10.1110/ps.34602) and equation 1:
where x is the concentration in denaturant and a=(ΔG°NU(H2O)−m*[D])/RT, and yobs is the monitored signal (i.e. λmax, F337 nm or CD207 nm) at a given denaturant concentration, and YN and YU are the values of these signals for the native and denatured states, respectively in the absence of denaturant. ΔG°NU(H2O) is the difference in free energy between the folded and unfolded states at 25° C.; m is a measure of the dependence of the free energy on the denaturant concentration, and [D] is the denaturant concentration. p and q are the slopes of the pre- and post-unfolding baselines, respectively, R is the gas constant, and T is the absolute temperature. Cm, the denaturant concentration at the midpoint of the denaturation curve ([U]/[N]=1) is defined as ΔG°NU(H2O)/m.

B1: NbE201: anti-hNE ISVD (VHH/nanobody) from immunized lama, amino acid sequence SEQ ID NO: 4 (protein)
VHH: QVQLQESGGGLVQAGGSLRLSCVVPGRTISLYRMGWFRQAPGKEREFVAGINWSGDMTDYVDSVKGRFTISRDNAKNTVYLEMNSLKPEDTAIYYCTADPKLLPLADSSYGYWGQGTQVTVSS
In the case of B1, the “apparent temperature of unfolding (Tm^app)” value [1] is reported as 70.7±1.5 °C, the Cm ([2]; CD) is reported as 5.8 M and the m ([2]; CD) is reported as 7.7 kJ · mol^−1 M^−1. For the same molecule, the “ΔG°NU(H2O)” value ([2]; CD) was 10.6 kcal/mol, the Cm ([2]; F (337 nm)) was 5.8 M and the m ([2]; F (337 nm)) was 6.7 kJ · mol^−1 M^−1. For the same molecule, the “ΔG°NU(H2O)” value ([2]; F (337 nm)) was 9.32 kcal/mol, the Cm ([2]; F (λmax)) was 6.0 M and the m ([2]; F (λmax)) was 6.5 kJ · mol^−1 M^−1. For the same molecule, the “ΔG°NU(H2O)” value ([2]; F (λmax)) was 9.35 kcal/mol, the Cm ([2]; Mean ± SD of the three probes) was 5.9 ± 0.1 M and the m ([2]; Mean ± SD of the three probes) was 7.0 ± 0.5 kJ · mol^−1 M^−1. The “ΔG°NU(H2O)” value ([2]; Mean ± SD of the three probes) was 9.75 ± 0.598 kcal/mol.

— patent publication US20260209387A1, “SINGLE-DOMAIN ANTIBODY FOR INHIBITION OF NEUTROPHIL ELASTASE ACTIVITY” (UNIVERSITE DE LIEGE, priority 2023, published 2026)
